Test results as given in article PMC8392593.

Key:
[1] = target: MuRF1 in fusion with the binding domain of GAL4 (pBridge, MCS I) (rat) (UniProt Q91Z63); assay: two-hybrid; yeast three-hybrid; pBridge::MuRF1/MHCIIa (MuRF1 GAL4 binding-domain fusion with MHCIIa residues 1–255 co-expressed from MCSII), preys in pGADT7; growth on -LTH + Aureobasidin A + 3-AT followed over 21 days
[2] = target: MuRF1 in fusion with the binding domain of GAL4 (pBridge, MCS I) (rat) (UniProt Q91Z63); assay: two-hybrid; Matchmaker Gold yeast two-hybrid; MuRF1 alone as GAL4 binding-domain fusion, preys in pGADT7; growth of diploid clones on -LTH + Aureobasidin A + 3-AT followed over 21 days
UBE2L3 (Homo sapiens) = UBE2L3 (Homo sapiens) (UniProt P68036); assay: SPR; settings: cited from earlier work

Substance	percentage of clones grown on selective media [1] [%]	percentage of clones grown on selective media [2] [%]	Kd (UBE2L3 (Homo sapiens)) [nM]
UBE2E1 in pGADT7 (GAL4 activation domain fusion) (from UniProt P52482 1-193) (enzyme)	80	80	
MuRF1 (from UniProt Q969Q1)			50
